This note sets out measurements from article PMC3093450.

For the test, the target named is GST-Sec23p (yeast) (UniProt P15303). As to the kind of experiment: pull-down.
GST-Sec23p (yeast), sequence (P15303 2-768): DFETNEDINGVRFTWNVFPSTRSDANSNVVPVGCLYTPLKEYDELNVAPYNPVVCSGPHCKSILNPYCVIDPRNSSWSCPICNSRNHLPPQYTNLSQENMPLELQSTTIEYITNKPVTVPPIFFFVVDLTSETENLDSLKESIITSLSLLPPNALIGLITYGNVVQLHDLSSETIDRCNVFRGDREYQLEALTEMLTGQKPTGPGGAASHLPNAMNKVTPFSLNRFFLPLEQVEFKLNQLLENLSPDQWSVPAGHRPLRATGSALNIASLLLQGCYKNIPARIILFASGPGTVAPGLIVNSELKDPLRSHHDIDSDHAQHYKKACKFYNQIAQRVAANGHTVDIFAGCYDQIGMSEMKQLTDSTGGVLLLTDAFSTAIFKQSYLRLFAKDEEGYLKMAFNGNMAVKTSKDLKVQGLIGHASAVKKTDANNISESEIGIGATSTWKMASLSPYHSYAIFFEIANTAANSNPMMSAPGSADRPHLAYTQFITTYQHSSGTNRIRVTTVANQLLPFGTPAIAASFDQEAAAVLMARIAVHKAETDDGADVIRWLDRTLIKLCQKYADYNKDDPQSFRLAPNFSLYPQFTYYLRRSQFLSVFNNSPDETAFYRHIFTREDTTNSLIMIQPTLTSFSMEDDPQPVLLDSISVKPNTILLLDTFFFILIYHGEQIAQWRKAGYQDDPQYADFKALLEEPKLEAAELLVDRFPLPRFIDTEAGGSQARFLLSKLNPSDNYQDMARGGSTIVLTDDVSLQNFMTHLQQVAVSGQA

With “TRAPPI complex (from UniProt P36149 1-193)”, the Kd was found to be 630 nM.

Usually Kd stands for the equilibrium constant for the complex coming apart. Read a high Kd as a looser complex.
